Measurements taken from PMC9630130, “Molecular interactions of FG nucleoporin repeats at high resolution” (Nature Chemistry, 2022).

Legend:
[1] = molecular target: the molecule itself; assay: aggregation of NMR assignment samples; 2 mM peptide in 50 mM sodium phosphate, 0.01% NaN3, 5% D2O, pH 6.8; NMR at 5 °C
[2] = molecular target: the molecule itself; assay: time-dependent loss of NMR signal (self-association/aggregation); synthetic Nup98 peptides alone in solution; propensity = difference between the NMR signal expected for the peptide concentration and that observed after 1 day of incubation at 5 °C (Fig. 2c); kinetics of 95-124 and its mutants in Supplementary Fig. 5
[3] = molecular target: the molecule itself; assay: cryo-EM structure; amyloid fibrils of Nup98^FG85: peptide dissolved in pure water at 1.5 mM, incubated at 25 °C for 1 h; helical reconstruction of four polymorphs (pm1-pm4)
[4] = molecular target: the molecule itself; assay: loss of 1D 1H NMR signal on change of pH; Nup98^FG (200 μM) or Nup98^FG85 (100 μM) in 50 mM sodium phosphate, 1 mM TCEP, 0.01% NaN3, 5% D2O; pH 3, adjusted to pH 7, then back to pH 3 and 30 min at 65 °C

B1: Nup98(345–384) peptide (peptide, UniProt P52948 345-384, looked up)
peptide: Ac-TGTGLFGQTNTGFGAVGSTLFGNNKLTTFGSSTTSAPSFG-NH2
notes: human nucleoporin 98 (Nup98), residues 345-384; source: synthetic peptide (solid-phase synthesis, Genscript)
Question: Does B1 bind [1]?
Answer: binds

B2: Nup98(298–327) peptide (peptide, UniProt P52948 298-327, looked up)
peptide: Ac-TGFSFGNTSTIGQPSTNTMGLFGVTQASQP-NH2
notes: human nucleoporin 98 (Nup98), residues 298-327; source: synthetic peptide (solid-phase synthesis, Genscript)
Question: Does B2 bind [1]?
Answer: binds

B3: Nup98(95–124) peptide (peptide, UniProt P52948 95-124, looked up)
peptide: Ac-ASTGTSLFSSQNNAFAQNKPTGFGNFGTST-NH2
notes: source: synthetic peptide (solid-phase synthesis, Genscript)
Question: Does B3 bind [2]?
Answer: binds

B4: Nup98^FG85 (residues 85–124 of human Nup98) (peptide, UniProt P52948 85-124, looked up)
peptide: TGTANTLFGTASTGTSLFSSQNNAFAQNKPTGFGNFGTST
notes: It forms amyloid fibrils of indefinite length with 3 (pm1) or 2 (pm2-pm4) protofilaments; also called Nup98^FG85 segment; source: synthetic peptide (solid-phase synthesis, Genscript)
Question: Does B4 bind [3]?
Answer: binds

B5: Nup98(95–124) peptide with F117 and F120 replaced by serine (peptide, UniProt P52948 95-124, looked up)
peptide: ASTGTSLFSSQNNAFAQNKPTGSGNSGTST
notes: also called phenylalanine-to-serine mutant peptide; source: synthetic peptide (solid-phase synthesis, Genscript)
Question: Does B5 bind [2]?
Answer: binds

B6: FG-repeat domain of human Nup98 (Nup98^FG, residues 1–384) (domain or fragment, UniProt P52948 1-384, looked up)
chain: MFNKSFGTPFGGGTGGFGTTSTFGQNTGFGTTSGGAFGTSAFGSSNNTGGLFGNSQTKPGGLFGTSSFSQPATSTSTGFGFGTSTGTANTLFGTASTGTSLFSSQNNAFAQNKPTGFGNFGTSTSSGGLFGTTNTTSNPFGSTSGSLFGPSSFTAAPTGTTIKFNPPTGTDTMVKAGVSTNISTKHQCITAMKEYESKSLEELRLEDYQANRKGPQNQVGAGTTTGLFGSSPATSSATGLFSSSTTNSGFAYGQNKTAFGTSTTGFGTNPGGLFGQQNQQTTSLFSKPFGQATTTQNTGFSFGNTSTIGQPSTNTMGLFGVTQASQPGGLFGTATNTSTGTAFGTGTGLFGQTNTGFGAVGSTLFGNNKLTTFGSSTTSAPSFG
notes: human nucleoporin 98 (Nup98), amino-terminal 384 residues (FG-repeat domain), in pET28a between NheI and XhoI; The methods describe no step that cleaves the His tag; also called 384-residue Nup98^FG domain; source: E. coli BL21(DE3), purified from the pellet in urea (Ni-NTA, two SEC steps)
Question: Does B6 bind [4]?
Answer: binds

B7: Nup98(95–124) peptide with Q105 and Q111 replaced by serine (peptide, UniProt P52948 95-124, looked up)
peptide: ASTGTSLFSSSNNAFASNKPTGFGNFGTST
notes: also called glutamine-to-serine mutant peptide; source: synthetic peptide (solid-phase synthesis, Genscript)
Question: Does B7 bind [2]?
Answer: binds
